B1: IL-23 alanine shave mutant M5 (ligand, human)
chain 1: RAVPGGSSPAWTQCQQLSQKLCTLAWSAHPLVGAADLREEGDEETTNDVPHIQCGDGCDPQGLRDNSQFCLQRIHQGLIFYEKLLGSDIFTGAPSLAPASPVGQLHASLLGLSQLLQPEGHHWETQQIPSLSPSQPWQRLLLRFKILRSLQAFVAVAARVFAHGAATLSP
chain 2: IWELKKDVYVVELDWYPDAPGEMVVLTCDTPEEDGITWTLDQSSEVLGSGKTLTIQVKEFGDAGQYTCHKGGEVLSHSLLLLHKKEDGIWSTDILKDQKEPKNKTFLRCEAKNYSGRFTCWWLTTISTDLTFSVKSSRGSSDPQGVTCGAATLSAERVRGDNKEYEYSVECQEDSACPAAEESLPIEVMVDAVHKLKYENYTSSFFIRDIIKPDPPKNLQLKPLKNSRQVEVSWEYPDTWSTPHSYFSLTFCVQVQGKSKREKKDRVFTDKTSATVICRKNASISVRAQDRYYSSSWSEWASVPCS
B2: IL-23 alanine shave mutant M9 (ligand, human)
chain 1: RAVPGGSSPAWTQCQQLSQKLCTLAWSAHPLVGHMDLREEGDEETTNDVPHIQCGDGCDPQGLRDNSQFCLQRIHQGLIFYEKLLGSDIFTGEPSLAPASPVGALHASLLGLSQLLQPEGHHWETQQIPSLSPSQPWQRLLLRFKILRSLQAFVAVAARVFAHGAATLSP
chain 2: IWELKKDVYVVELDWYPDAPGEMVVLTCDTPEEDGITWTLDQSSEVLGSGKTLTIQVKEFGDAGQYTCHKGGEVLSHSLLLLHKKEDGIWSTDILKDQKEPKNKTFLRCEAKNYSGRFTCWWLTTISTDLTFSVKSSRGSSDPQGVTCGAATLSAERVRGDNKEYEYSVECQEDSACPAAEESLPIEVMVDAVHKLKYENYTSSFFIRDIIKPDPPKNLQLKPLKNSRQVEVSWEYPDTWSTPHSYFSLTFCVQVQGKSKREKKDRVFTDKTSATVICRKNASISVRAQDRYYSSSWSEWASVPCS
B3: IL-23 alanine shave mutant M7 (ligand, human)
chain 1: RAVPGGSSPAWTQCQQLSQKLCTLAWSAHPLVGHMDLREEGDEETTNDVPHIQCGDGCDPQGLRDNSQFCLQRIHQGLIFYEKLLGSDIFTGEPSLLPDSPVGQLHASLLGLSQLLQPEGHHAAAAAIPSLSPSQPWQRLLLRFKILRSLQAFVAVAARVFAHGAATLSP
chain 2: IWELKKDVYVVELDWYPDAPGEMVVLTCDTPEEDGITWTLDQSSEVLGSGKTLTIQVKEFGDAGQYTCHKGGEVLSHSLLLLHKKEDGIWSTDILKDQKEPKNKTFLRCEAKNYSGRFTCWWLTTISTDLTFSVKSSRGSSDPQGVTCGAATLSAERVRGDNKEYEYSVECQEDSACPAAEESLPIEVMVDAVHKLKYENYTSSFFIRDIIKPDPPKNLQLKPLKNSRQVEVSWEYPDTWSTPHSYFSLTFCVQVQGKSKREKKDRVFTDKTSATVICRKNASISVRAQDRYYSSSWSEWASVPCS
B4: IL-23 alanine shave mutant M10 (ligand, human)
chain 1: RAVPGGSSPAWTQCQQLSQKLCTLAWSAHPLVGAAALREEGDEETTNDVPHIQCGDGCDPQGLRDNSQFCLQRIHQGLIFYEKLLGSDIFTGEPSLLPDSPVGQLHASLLGLSQLLQPEGHHWETQQIPSLSPSQPWQRLLLRAKILRSLQAFVAVAARVFAHGAATLSP
chain 2: IWELKKDVYVVELDWYPDAPGEMVVLTCDTPEEDGITWTLDQSSEVLGSGKTLTIQVKEFGDAGQYTCHKGGEVLSHSLLLLHKKEDGIWSTDILKDQKEPKNKTFLRCEAKNYSGRFTCWWLTTISTDLTFSVKSSRGSSDPQGVTCGAATLSAERVRGDNKEYEYSVECQEDSACPAAEESLPIEVMVDAVHKLKYENYTSSFFIRDIIKPDPPKNLQLKPLKNSRQVEVSWEYPDTWSTPHSYFSLTFCVQVQGKSKREKKDRVFTDKTSATVICRKNASISVRAQDRYYSSSWSEWASVPCS

Biological target: human IL-23Rα / human IL-12Rβ1 on BaF3 transfectants (human, UniProt Q5VWK5 24-629; P42701 24-662)
Assay: cell-based or functional assay

Chain of human IL-23Rα / human IL-12Rβ1 on BaF3 transfectants (Q5VWK5 24-629, chain 1 of 2, other chains not shown): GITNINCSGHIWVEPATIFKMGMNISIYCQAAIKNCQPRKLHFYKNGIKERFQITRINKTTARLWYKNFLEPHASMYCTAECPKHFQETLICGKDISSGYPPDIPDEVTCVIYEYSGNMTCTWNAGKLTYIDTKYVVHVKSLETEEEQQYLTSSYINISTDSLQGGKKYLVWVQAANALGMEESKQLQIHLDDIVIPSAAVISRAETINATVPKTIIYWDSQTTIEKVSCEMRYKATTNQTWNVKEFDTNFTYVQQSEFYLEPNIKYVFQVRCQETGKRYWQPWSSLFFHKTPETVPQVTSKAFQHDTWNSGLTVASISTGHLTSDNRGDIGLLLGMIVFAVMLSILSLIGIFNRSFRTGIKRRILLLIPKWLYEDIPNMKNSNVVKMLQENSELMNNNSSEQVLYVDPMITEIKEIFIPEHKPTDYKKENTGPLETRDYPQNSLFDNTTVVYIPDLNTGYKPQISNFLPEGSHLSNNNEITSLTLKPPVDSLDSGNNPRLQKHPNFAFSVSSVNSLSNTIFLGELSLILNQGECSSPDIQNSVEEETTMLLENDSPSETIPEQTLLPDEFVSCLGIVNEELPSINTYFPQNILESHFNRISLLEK

EC50, pSTAT3 in BaF3/huIL-23Rα/huIL-12Rβ1 transfectants [pM]	Binder
26	B1
33	B2
21	B3
19	B4

— US20180037645A1 (Bristol-Myers Squibb, published 2018)
